Source: the domain aggregation screens of Martell et al. (2025)

Assay: soluble fraction after stress (log2 fold change); higher = more stays soluble; pooled small domains, quantitative proteomics
Conditions: stress: 50 degC
Outline: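 Each library was heated to 50°C as a stress step. The libraries, made up of small protein domains, were pooled and analysed at high throughput by quantitative proteomics. The reported value is the base-two logarithm of the fold change in each protein's soluble amount after stress, taken as a measure of aggregation propensity. The higher the value, the more protein stays in solution.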
With “HMKSPAQAAALKKLWAAIKQNEQGEVVEVLFHNRKLTDAGLVHLKGLANLQTLNLYDTKITGAGLVHL” the “soluble fraction (log2)” value was 0.0876. In the case of “HMGTAGLSPWHKIAVLMIALGPEGASELMRHFGEDEVEQVVQAIADLKNVPSELQDAVLLEMEGALQEG”, the “soluble fraction (log2)” value is reported as -0.00851. With “HMGVEVPRGDGSTVVRVRAGSSLADFAERIGADPAALITVLFRMGEMATVNQSLDEDTFKLLGAELGYDVQ” the “soluble fraction (log2)” value was -0.691. With “HMPRDQQENIYLLEKGKRLYEEHLGDQRQIIGHRIMIFERILESQDHAQIRRAQSEFAEFLSHYDG” the “soluble fraction (log2)” value was -0.229. With “HMRGPTIELLIQKSALYEELDDSENALKEILKAFDRDSLNSDVLNRLVNLLLNDKQIDRAENYNQLLIEK” the “soluble fraction (log2)” value was -0.32. In the case of “HMRKGDDRLRAQVDEYISKQGNNTFNYKQVAHAINATSPISQRAVALYLAELAFDGDLLETAPGRYKSPSR”, the “soluble fraction (log2)” value is reported as 0.0382. In the case of “HMAKDSQSADVLQAIFDGSKVLNGLALDQDMRWDLINGLVMSGRLGVEAIEAEAAKLAKLVEELEFR”, the “soluble fraction (log2)” value is reported as -0.892. With “HMPASDPNEKQILRFLTEHQVITRKETQALLDVSQSTAGRVLKAMVDNGQIKQLGGSRNTRYELPM” the “soluble fraction (log2)” value was -0.183. In the case of “HMEKGIVSNKTDKGYGFIRSSTGESIFVHINNVGKEAYEQLAKGSRVLFDYEVTDRGKRATKVMLEPSES”, the “soluble fraction (log2)” value is reported as 0.0488. In the case of “HMKLPNGYGGIAKLSGKRRNPWRVRVTKGWSVDEQTGKAKQLFSTLGYYPTRKDALAALSAYNQNP”, the “soluble fraction (log2)” value is reported as -0.942. In the case of “HMAPIEVPYNVFRQQVVEGNVESVATRADTVQGYFETPVTLPARPDAAAAEPVTVERFSTTLPSF”, the “soluble fraction (log2)” value is reported as 0.142. For “HMITPNQAAVTLKVSTSTLRRWSSDFEPFLSPRKGVKRLYTIEDIATLKRIQGLYKQGMNTAQVQA”, the “soluble fraction (log2)” value was -2.1. In the case of “HMKYSQAMIAQIIKHFHLPNNTVVTGEDVDAILLRSVDGGDGIYGGDVVSIWKYYKKQNDIQEIVT”, the “soluble fraction (log2)” value is reported as -0.645. In the case of “HMENFDNIFDQRLMPSLFIIRNINQAIENNNNNKFLLNSTISMKDKHWIEIHPHHLKLIISGYQT”, the “soluble fraction (log2)” value is reported as -0.238. In the case of “HMDLMSTNEKLLYTMRYLISKSLDGAITEEEIRRLDRLIIENSQARAYYVEYLQIHTHLRKLMQQNPELK”, the “soluble fraction (log2)” value is reported as -1.97. With “HMTPTPQQNNILVGQTGTTLTRLAPMGKVRVGEVTAEAKTIDGYINPRQSVEVIGFENTVVIVRAV” the “soluble fraction (log2)” value was 0.144. For “HMVLRPDDVEDSLWREWVSHRKAKRAAVTEGVLKTFRQEATKASFTLADAMRKSIDRGWTGFEAEWVARET”, the “soluble fraction (log2)” value was -0.074. In the case of “HMDETFTITFDPNGGTLNGSKTKTVSLGDIVYGKLPTASKTGYSFIGWFTEKEGGEQISSATKIIASDLTL”, the “soluble fraction (log2)” value is reported as 0.0253. With “HMNVDIVEITKNSSPNQISKVIDIGAIQIVEDLMSFGIMKAIDTPLEDSEIEQLLEKYNLIVDLIE” the “soluble fraction (log2)” value was -2.33. For “HMTGLRETIPAALDGERLDRVVALLGDVSRSRASAALEAERVTLDGEVVTLRSHRVREGEELTVAGFE”, the “soluble fraction (log2)” value was 0.405. With “HMGTSRVQSILFDQSQWTINRAVHWLNTHHFISTKIDKTDKYLRFRQFDPNPDSHHATKRTSQGITFILE” the “soluble fraction (log2)” value was -3.51. With “HMDHVEDRMVLEVVLKKLTEEERRIVMLHAVSGLKHREIAKALDIPLSTVLSKYKRTLKKLEAYLMEME” the “soluble fraction (log2)” value was -1.78. For “HMGSWDDFFNAIRLDNPNTLQALLQRGFDPNTVDQQGTPALMRALQEQSYRAAEVLADHPQI”, the “soluble fraction (log2)” value was -0.459. With “HMLELLSMEDIQRTRVGDLIATVRQVDRQHALVLDRDPETGKPAVRGIFSLSQISLRLGLNI” the “soluble fraction (log2)” value was -0.557. With “HMAATSTGFPGVEVRGNSIRVFFMYKRDRHAHTLPLEPTRNNIKHADQLRSAALFALRNGTYNEADFFPHS” the “soluble fraction (log2)” value was -1.53. In the case of “HMKIDNIIIYITGGVKKEGVYELPDGSRISDAIEQAEGLKANADTSSINLAYKLEDGMKIKIPLQGEN”, the “soluble fraction (log2)” value is reported as -0.0298. For “HMEKRIIMLEELKKQVYEANMELPRRGLITYTWGNVSGIDRESGNFVIKPSGVDYDKLKPEDMVVMDL”, the “soluble fraction (log2)” value was -0.0887. For “HMVQYVDFVKRMIEELPWWHRRMLELKYLDGLTYEEIADELQVPVGTVKGTLHRAKELFQEILKNN”, the “soluble fraction (log2)” value was -2.05. With “HMRMTLKNKVEDIVHILRKDKQTSLSAILGDNTDRIQTIVVFLAILELVKQHLIKTDQNANFGDINLFPED” the “soluble fraction (log2)” value was -0.0677. In the case of “HMPQKIVIQKGVVIKKRERSDAWQIYITVKGKKPIRKSANTDNVEKAKQMALTLFAEKNYKVENNLPIQ”, the “soluble fraction (log2)” value is reported as -1.18.
